# B1: full length recombinant FKBP-L: recombinant full length his-tagged FKBP-L protein (SEQ ID NO: 1) expressed in BL21 (DE3) (protein, listed as Homo sapiens)
# chain: MRGSHHHHHHGMASMTGGQQMGRDLYDDDDKDRWGSMETPPVNTIGEKDTSQPQQEWEKNLRENLDSVIQIRQQPRDPPTETLELEVSPDPASQILEHTQGAEKLVAELEGDSHKSHGSTSQMPEALQASDLWYCPDGSFVKKIVIRGHGLDKPKLGSCCRVLALGFPFGSGPPEGWTELTMGVGPWREETWGELIEKCLESMCQGEEAELQLPGHTGPPVGLTLASFTQGRDSWELETSEKEALAREERARGTELFRAGNPEGAARCYGRALRLLLTLPPPGPPERTVLHANLAACQLLLGQPQLAAQSCDRVLEREPGHLKALYRRGVAQAALGNLEKATADLKKVLAIDPKNRAAQEELGKVVIQGKNQDAGLAQGLRKMFG
# modifications: His tag
# Columns and labels:
# [1] = tested on: HT29 (Colorectal tumor cell line; CD44 +ve); assay: tumor cell migration, wound closure assay, HT29; type: cell-based; conditions: 24 hours
# Method: In these experiments, the effect of recombinant FKBP-L on tumor cell migration was assessed. The in vitro migration assay used in these studies is a modified version of the method described by Ashton et al (1999) see supra. PC3, MDA231, and HT29 tumor cells were plated into individual chambers on a glass slide and grown to 90% confluence overnight. The medium was removed and the monolayers wounded. The monolayer was re-supplemented with fresh medium and the required volume of His-tagged recombinant FKBP-L protein (SEQ ID NO: 1) was added to give the final concentrations shown. The monolayers were incubated for 24 hours and then fixed in 4% PBS buffered paraformaldehyde.
# The extent of “wound” closure was blindly assessed microscopically by an independent investigator and quantified using a calibrated eyepiece graticule (1 mm/100 μm graduation) at 20× magnification (Olympus BX 50). The extent of closure in the FKBP-L treated slides was compared to time matched sham-treated controls and the percent inhibition of wound closure compared to time matched controls calculated. […]
# The extent of “wound” closure was blindly assessed microscopically by an independent investigator and quantified using a calibrated eyepiece graticule (1 mm/100 μm graduation) at 20× magnification (Olympus BX 50). […]
# migrating HMEC-1 = assay: immunohistochemical analysis of cytoskeletal morphology (anti-tubulin, anti-vimentin, confocal microscopy); type: cell-based, Human; conditions: 750 ngml^−1; 5 hours after wounding
# Method: Immunohistochemical analysis was carried out to assess cytoskeletal morphology upon treatment with FKBP-L by staining for tubulin and vimentin. HMEC-1 were seeded in four well chamber slides and incubtated overnight until confluent monolayers had formed. Media was removed from each well and the monolayer wounded as previously described. The cells were re-supplemented with medium containing 750 ngml^−1 recombinant His-tagged FKBP-L protein (i.e., SEQ ID NO: 1). The cells were incubated for 5 hours and the chambers were removed from the slides and the cells washed four times in PBS followed by fixation in 4% PBS buffered paraformaldehyde treated with 0.1% Triton X for 20 minutes. The cells were washed three times in PBS, and blocked for 20 minutes in 2% BSA containing 0.1% Triton X. Blocked cells were washed in PBS and incubated with one of the following monoclonal primary antibodies: (A) anti α tubulin (1:500); and (B) anti-vimentin (1:200), for 90 minutes. The cells were washed in PBS followed by a 1 hour incubation with FITC conjugated anti-mouse secondary (1:30) at room temperature. The cells were mounted with Vectashield containing propidium iodide and sealed to prevent dehydration. The slides were covered in tinfoil and stored at 4° C. for analysis using fluorescence confocal microscopy.
molecule,measurement,setting,value
B1,effect on tumor cell migration,[1],inhibits tumor cell migration in a dose-dependent manner
same,intermediate filament morphology (anti-vimentin staining),migrating HMEC-1,highly disorganized
same,microtubule morphology (anti α tubulin staining),migrating HMEC-1,little alignment into the wound

# Reference: patent US10577406B2, “FKBP-L polypeptides and uses in angiogenesis-mediated disorders” (ALMAC DISCOVERY LIMITED, priority 2006, dated 2020)
